First the molecules themselves.
B1: STK17A(DRAK1) (protein)
chain: MIPLEKPGSGGSSPGATSGSGRAGRGLSGPCRPPPPPQARGLLTEIRAVVRTEPFQDGYSLCPGRELGRGKFAVVRKCIKKDSGKEFAAKFMRKRRKGQDCRMEIIHEIAVLELAQDNPWVINLHEVYETASEMILVLEYAAGGEIFDQCVADREEAFKEKDVQRLMRQILEGVHFLHTRDVVHLDLKPQNILLTSESPLGDIKIVDFGLSRILKNSEELREIMGTPEYVAPEILSYDPISMATDMWSIGVLTYVMLTGISPFLGNDKQETFLNISQMNLSYSEEEFDVLSESAVDFIRTLLVKKPEDRATAEECLKHPWLTQSSIQEPSFRMEKALEEANALQEGHSVPEINSDTDKSETKESIVTEELIVVTSYTLGQCRQSEKEKMEQKAISKRFKFEEPLLQEIPGEFIY
B2: FGFR3 (protein)
chain: RLRSPPKKGLGSPTVHKISRFPLKRQVSLESNASMSSNTPLVRIARLSSGEGPTLANVSELELPADPKWELSRARLTLGKPLGEGCFGQVVMAEAIGIDKDRAAKPVTVAVKMLKDDATDKDLSDLVSEMEMMKMIGKHKNIINLLGACTQGGPLYVLVEYAAKGNLREFLRARRPPGLDYSFDTCKPPEEQLTFKDLVSCAYQVARGMEYLASQKCIHRDLAARNVLVTEDNVMKIADFGLARDVHNLDYYKKTTNGRLPVKWMAPEALFDRVYTHQSDVWSFGVLLWEIFTLGGSPYPGIPVEELFKLLKEGHRMDKPANCTHDLYMIMRECWHAAPSQRPTFKQLVEDLDRVLTVTSTDEYLDLSAPFEQYSPGGQDTPSSSSSGDDSVFAHDLLPPAPPSSGGSRT
B3: TAOK3(JIK) (protein)
chain: MRKGVLKDPEIADLFYKDDPEELFIGLHEIGHGSFGAVYFATNAHTSEVVAIKKMSYSGKQTHEKWQDILKEVKFLRQLKHPNTIEYKGCYLKEHTAWLVMEYCLGSASDLLEVHKKPLQEVEIAAITHGALHGLAYLHSHALIHRDIKAGNILLTEPGQVKLADFGSASMASPANSFVGTPYWMAPEVILAMDEGQYDGKVDIWSLGITCIELAERKPPLFNMNAMSALYHIAQNDSPTLQSNEWTDSFRRFVDYCLQKIPQERPTSAELLRHDFVRRDRPLRVLIDLIQRTKDAVRELDNLQYRKMKKILFQETRNGPLNESQEDEEDSEHGTSLNREMDSLGSNHSIPSMSVSTGSQSSSVNSMQEVMDESSSELVMMHDDESTINSSSSVVHKKDHVFIRDEAGHGDPRPEPRPTQSVQSQALHYRNRERFATIKSASLVTRQIHEHEQENELREQMSGYKRMRRQHQKQLIALENKLKAEMDEHRLKLQKEVETHANNSSIELEKLAKKQVAIIEKEAKVAAADEKKFQQQILAQQKKDLTTFLESQKKQYKICKEKIKEEMNEDHSTPKKEKQERISKHKENLQHTQAEEEAHLLTQQRLYYDKNCRFFKRKIMIKRHEVEQQNIREELNKKRTQKEMEHAMLIRHDESTRELEYRQLHTLQKLRMDLIRLQHQTELENQLEYNKRRERELHRKHVMELRQQPKNLKAMEMQIKKQFQDTCKVQTKQYKALKNHQLEVTPKNEHKTILKTLKDEQTRKLAILAEQYEQSINEMMASQALRLDEAQEAECQALRLQLQQEMELLNAYQSKIKMQTEAQHERELQKLEQRVSLRRAHLEQKIEEELAALQKERSERIKNLLERQEREIETFDMESLRMGFGNLVTLDFPKEDYR
B4: TAOK2(TAO1) (protein)
chain: MPAGGRAGSLKDPDVAELFFKDDPEKLFSDLREIGHGSFGAVYFARDVRNSEVVAIKKMSYSGKQSNEKWQDIIKEVRFLQKLRHPNTIQYRGCYLREHTAWLVMEYCLGSASDLLEVHKKPLQEVEIAAVTHGALQGLAYLHSHNMIHRDVKAGNILLSEPGLVKLGDFGSASIMAPANSFVGTPYWMAPEVILAMDEGQYDGKVDVWSLGITCIELAERKPPLFNMNAMSALYHIAQNESPVLQSGHWSEYFRNFVDSCLQKIPQDRPTSEVLLKHRFVLRERPPTVIMDLIQRTKDAVRELDNLQYRKMKK
B5: FGFR4 (protein)
chain: RGQALHGRHPRPPATVQKLSRFPLARQFSLESGSSGKSSSSLVRGVRLSSSGPALLAGLVSLDLPLDPLWEFPRDRLVLGKPLGEGCFGQVVRAEAFGMDPARPDQASTVAVKMLKDNASDKDLADLVSEMEVMKLIGRHKNIINLLGVCTQEGPLYVIVECAAKGNLREFLRARRPPGPDLSPDGPRSSEGPLSFPVLVSCAYQVARGMQYLESRKCIHRDLAARNVLVTEDNVMKIADFGLARGVHHIDYYKKTSNGRLPVKWMAPEALFDRVYTHQSDVWSFGILLWEIFTLGGSPYPGIPVEELFSLLREGHRMDRPPHCPPELYGLMRECWHAAPSQRPTFKQLVEALDKVLLAVSEEYLDLRLTFGPYSPSGGDASSTCSSSDSVFSHDPLPLGSSSFPFGSGVQT
B6: STK22D(TSSK1) (protein)
chain: MDDAAVLKRRGYLLGINLGEGSYAKVKSAYSERLKFNVAIKIIDRKKAPADFLEKFLPREIEILAMLNHCSIIKTYEIFETSHGKVYIVMELAVQGDLLELIKTRGALHEDEARKKFHQLSLAIKYCHDLDVVHRDLKCDNLLLDKDFNIKLSDFSFSKRCLRDDSGRMALSKTFCGSPAYAAPEVLQGIPYQPKVYDIWSLGVILYIMVCGSMPYDDSNIKKMLRIQKEHRVNFPRSKHLTGECKDLIYHMLQPDVNRRLHIDEILSHCWMQPKARGSPSVAINKEGESSRGTEPLWTPEPGSDKKSATKLEPEGEAQPQAQPETKPEGTAMQMSRQSEILGFPSKPSTMETEEGPPQQPPETRAQ
B7: TTK (protein)
chain: MESEDLSGRELTIDSIMNKVRDIKNKFKNEDLTDELSLNKISADTTDNSGTVNQIMMMANNPEDWLSLLLKLEKNSVPLSDALLNKLIGRYSQAIEALPPDKYGQNESFARIQVRFAELKAIQEPDDARDYFQMARANCKKFAFVHISFAQFELSQGNVKKSKQLLQKAVERGAVPLEMLEIALRNLNLQKKQLLSEEEKKNLSASTVLTAQESFSGSLGHLQNRNNSCDSRGQTTKARFLYGENMPPQDAEIGYRNSLRQTNKTKQSCPFGRVPVNLLNSPDCDVKTDDSVVPCFMKRQTSRSECRDLVVPGSKPSGNDSCELRNLKSVQNSHFKEPLVSDEKSSELIITDSITLKNKTESSLLAKLEETKEYQEPEVPESNQKQWQSKRKSECINQNPAASSNHWQIPELARKVNTEQKHTTFEQPVFSVSKQSPPISTSKWFDPKSICKTPSSNTLDDYMSCFRTPVVKNDFPPACQLSTPYGQPACFQQQQHQILATPLQNLQVLASSSANECISVKGRIYSILKQIGSGGSSKVFQVLNEKKQIYAIKYVNLEEADNQTLDSYRNEIAYLNKLQQHSDKIIRLYDYEITDQYIYMVMECGNIDLNSWLKKKKSIDPWERKSYWKNMLEAVHTIHQHGIVHSDLKPANFLIVDGMLKLIDFGIANQMQPDTTSVVKDSQVGTVNYMPPEAIKDMSSSRENGKSKSKISPKSDVWSLGCILYYMTYGKTPFQQIINQISKLHAIIDPNHEIEFPDIPEKDLQDVLKCCLKRDPKQRISIPELLAHPYVQIQTHPVNQMAKGTTEEMKYVLGQLVGLNSPNSILKAAKTLYEHYSGGESHNSSSSKTFEKKRGKK
B8: TBK1 (protein)
chain: MQSTSNHLWLLSDILGQGATANVFRGRHKKTGDLFAIKVFNNISFLRPVDVQMREFEVLKKLNHKNIVKLFAIEEETTTRHKVLIMEFCPCGSLYTVLEEPSNAYGLPESEFLIVLRDVVGGMNHLRENGIVHRDIKPGNIMRVIGEDGQSVYKLTDFGAARELEDDEQFVSLYGTEEYLHPDMYERAVLRKDHQKKYGATVDLWSIGVTFYHAATGSLPFRPFEGPRRNKEVMYKIITGKPSGAISGVQKAENGPIDWSGDMPVSCSLSRGLQVLLTPVLANILEADQEKCWGFDQFFAETSDILHRMVIHVFSLQQMTAHKIYIHSYNTATIFHELVYKQTKIISSNQELIYEGRRLVLEPGRLAQHFPKTTEENPIFVVSREPLNTIGLIYEKISLPKVHPRYDLDGDASMAKAITGVVCYACRIASTLLLYQELMRKGIRWLIELIKDDYNETVHKKTEVVITLDFCIRNIEKTVKVYEKLMKINLEAAELGEISDIHTKLLRLSSSQGTIETSLQDIDSRLSPGGSLADAWAHQEGTHPKDRNVEKLQVLLNCMTEIYYQFKKDKAERRLAYNEEQIHKFDKQKLYYHATKAMTHFTDECVKKYEAFLNKSEEWIRKMLHLRKQLLSLTNQCFDIEEEVSKYQEYTNELQETLPQKMFTASSGIKHTMTPIYPSSNTLVEMTLGMKKLKEEMEGVVKELAENNHILERFGSLTMDGGLRNVDCL
B9: STK22B(TSSK2) (protein)
chain: MDDATVLRKKGYIVGINLGKGSYAKVKSAYSERLKFNVAVKIIDRKKTPTDFVERFLPREMDILATVNHGSIIKTYEIFETSDGRIYIIMELGVQGDLLEFIKCQGALHEDVARKMFRQLSSAVKYCHDLDIVHRDLKCENLLLDKDFNIKLSDFGFSKRCLRDSNGRIILSKTFCGSAAYAAPEVLQSIPYQPKVYDIWSLGVILYIMVCGSMPYDDSDIRKMLRIQKEHRVDFPRSKNLTCECKDLIYRMLQPDVSQRLHIDEILSHSWLQPPKPKATSSASFKREGEGKYRAECKLDTKTGLRPDHRPDHKLGAKTQHRLLVVPENENRMEDRLAETSRAKDHHISGAEVGKAST
B10: FGFR2 (protein)
chain: RMKNTTKKPDFSSQPAVHKLTKRIPLRRQVTVSAESSSSMNSNTPLVRITTRLSSTADTPMLAGVSEYELPEDPKWEFPRDKLTLGKPLGEGCFGQVVMAEAVGIDKDKPKEAVTVAVKMLKDDATEKDLSDLVSEMEMMKMIGKHKNIINLLGACTQDGPLYVIVEYASKGNLREYLRARRPPGMEYSYDINRVPEEQMTFKDLVSCTYQLARGMEYLASQKCIHRDLAARNVLVTENNVMKIADFGLARDINNIDYYKKTTNGRLPVKWMAPEALFDRVYTHQSDVWSFGVLMWEIFTLGGSPYPGIPVEELFKLLKEGHRMDKPANCTNELYMMMRDCWHAVPSQRPTFKQLVEDLDRILTLTTNEEYLDLSQPLEQYSPSYPDTRSSCSSGDDSVFSPDPMPYEPCLPQYPHINGSVKT

The target in this series is T1, Bovine, dephosphorylated, Myelin Basic Protein (MBP), P02687.
T1 chain: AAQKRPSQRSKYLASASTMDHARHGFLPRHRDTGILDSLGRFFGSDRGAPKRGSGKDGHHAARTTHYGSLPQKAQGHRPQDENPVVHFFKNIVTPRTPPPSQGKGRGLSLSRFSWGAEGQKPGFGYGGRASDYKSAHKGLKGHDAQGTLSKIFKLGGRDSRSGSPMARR
Regarding B1, the “MBP Kinase Activity” value is “Negative”. Then B2, with “Strong”; and B3, with “Strong”; and B4, with “Strong”. In the case of B5, the “MBP Kinase Activity” value was “Strong”. The entry for B6 is “Strong”; for B7 it is “Negative”; for B8 it is “Strong”. The entry for B9 is “Negative”. The entry for B10 is “Strong”.

Source of the values: US20090099029.
